This note sets out measurements from patent US8846003.

No end group written: not given here.

The target of the experiment is collagen. Nature of the experiment: SPR, Biacore 2000; 1500 RU collagen amine-coupled to CM-3 chip, SILY injected at 100 µM to 1.5 µM; from on-off binding kinetics. (In general: Surface plasmon resonance follows binding to a sensor surface in real time, without labels.)

For orientation: Kd means the equilibrium constant for the complex coming apart. The low end stands for tighter binding, the high end for weaker binding.

B1: peptide … (peptide)
peptide: RRANAALKAGELYKSILYGC-NH2
In turn, B1 registered a Kd of 1200 nM.
